Test results as given in US12344663 (CDR LIFE, dated 2025).
Changes are numbered by the printed parent chain. Blank lines part the entries; values can stand above or below the binder they belong to.

Key:
human complement C3 [1] = target: T1, human complement C3 (human, UniProt P01024 23-1663); assay: cell-based or functional assay
human complement C3 [2] = target: T1, human complement C3; assay: SPR (Biacore T100), target immobilized, single cycle kinetics, 1:1 Langmuir fit
Description: (§1) The kinetic parameters of the candidates are determined using a surface plasmon resonance (SPR) and Biacore T100 device. C3 and different variants thereof (Table 19) are immobilized as a ligand on a HC30M SPR sensor chip (XanTec bionanalytics, Germany) using EDC/[…] linking chemistry. Five increasing concentrations of each molecule (analyte) are consecutively injected using the single cycle kinetics (SCK) mode to determine the kinetic parameters. Regeneration between the candidates is done with 10 mM glycine*HCl, 2 M NaCl, pH 3.5. The data is fitted to a 1:1 Langmuir binding model and the kinetic parameters of on-rate (ka), off-rate (kd), and affinity […] were determined.

human C3b [3] = target: T2, human C3b (human, UniProt P01024 23-667; P01024 749-1663, limits assumed); assay: SPR; reference: the same molecule on intact human C3
T2 construct: domain: C3b; also called C3 cleavage fragments C3b
T2 sequence (P01024 23-667 limits assumed, chain 1 of 2): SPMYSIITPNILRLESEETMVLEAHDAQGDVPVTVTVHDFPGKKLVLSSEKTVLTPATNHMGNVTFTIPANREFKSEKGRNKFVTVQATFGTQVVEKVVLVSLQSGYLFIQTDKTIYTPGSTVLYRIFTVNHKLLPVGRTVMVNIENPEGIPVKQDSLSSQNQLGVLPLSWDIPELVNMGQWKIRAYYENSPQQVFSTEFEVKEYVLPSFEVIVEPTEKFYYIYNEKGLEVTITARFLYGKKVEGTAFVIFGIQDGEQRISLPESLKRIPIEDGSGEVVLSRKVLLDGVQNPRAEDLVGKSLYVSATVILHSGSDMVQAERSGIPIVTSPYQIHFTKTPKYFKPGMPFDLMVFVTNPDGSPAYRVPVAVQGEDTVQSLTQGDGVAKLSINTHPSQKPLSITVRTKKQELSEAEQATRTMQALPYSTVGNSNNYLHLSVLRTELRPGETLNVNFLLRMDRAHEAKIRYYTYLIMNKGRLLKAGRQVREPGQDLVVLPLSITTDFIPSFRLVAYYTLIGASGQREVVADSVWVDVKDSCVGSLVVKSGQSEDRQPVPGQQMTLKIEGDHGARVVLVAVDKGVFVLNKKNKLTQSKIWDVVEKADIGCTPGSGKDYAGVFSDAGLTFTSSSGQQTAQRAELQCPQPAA
T2 sequence (P01024 749-1663 limits assumed, chain 2 of 2): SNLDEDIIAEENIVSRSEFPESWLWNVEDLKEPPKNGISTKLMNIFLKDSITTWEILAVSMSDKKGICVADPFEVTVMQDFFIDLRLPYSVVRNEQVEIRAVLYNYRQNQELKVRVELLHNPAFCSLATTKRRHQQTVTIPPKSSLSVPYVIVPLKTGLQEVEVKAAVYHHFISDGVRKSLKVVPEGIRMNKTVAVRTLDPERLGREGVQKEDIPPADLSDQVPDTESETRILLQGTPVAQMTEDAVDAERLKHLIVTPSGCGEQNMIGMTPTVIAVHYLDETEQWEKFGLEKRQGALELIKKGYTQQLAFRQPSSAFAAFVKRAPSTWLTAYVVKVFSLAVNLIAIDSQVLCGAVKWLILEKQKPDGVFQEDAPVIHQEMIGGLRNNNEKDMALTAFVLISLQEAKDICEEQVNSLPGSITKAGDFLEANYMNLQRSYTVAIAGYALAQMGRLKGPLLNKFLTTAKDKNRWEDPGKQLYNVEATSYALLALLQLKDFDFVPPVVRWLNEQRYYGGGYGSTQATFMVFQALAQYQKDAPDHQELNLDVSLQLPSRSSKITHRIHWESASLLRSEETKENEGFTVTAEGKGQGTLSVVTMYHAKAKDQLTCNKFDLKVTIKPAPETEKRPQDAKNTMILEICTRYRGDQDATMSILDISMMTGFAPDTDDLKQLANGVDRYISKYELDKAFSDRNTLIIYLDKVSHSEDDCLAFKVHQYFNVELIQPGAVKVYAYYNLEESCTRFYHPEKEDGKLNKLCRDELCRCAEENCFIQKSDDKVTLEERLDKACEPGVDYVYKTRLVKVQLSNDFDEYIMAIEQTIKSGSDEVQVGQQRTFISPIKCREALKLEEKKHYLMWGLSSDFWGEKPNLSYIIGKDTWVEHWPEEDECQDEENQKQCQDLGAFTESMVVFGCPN
Description: as §1

human complement C3 [4] = target: T1, human complement C3; assay: cell-based or functional assay; remark: listed apart in the source
human complement C3 [5] = target: T1, human complement C3; assay: SPR
human C3b [6] = target: T2, human C3b; assay: SPR
human complement C3 [7] = target: T1, human complement C3; assay: affinity of the purified scFv, method not given
human complement C3 [8] = target: T1, human complement C3; assay: method not given; reference Clone IV
human C3b [9] = target: T2, human C3b; assay: method not given; reference Clone IV
human complement C3 [10] = target: T1, human complement C3; assay: SPR (Biacore T100), target immobilized, single cycle kinetics, 1:1 Langmuir fit; remark: listed apart in the source
Description: as §1

human C3 R102G = target: T3, human C3 R102G (human, UniProt P01024 23-1663, limits assumed); assay: as above
T3 construct: Expressed in CHO cells with an N-terminal 6×His tag; also called C3 SNP2 R102G; C3 SNP R102G
T3 sequence (P01024 other isoform, or with tags, fused parts or gaps R102G R102G limits assumed): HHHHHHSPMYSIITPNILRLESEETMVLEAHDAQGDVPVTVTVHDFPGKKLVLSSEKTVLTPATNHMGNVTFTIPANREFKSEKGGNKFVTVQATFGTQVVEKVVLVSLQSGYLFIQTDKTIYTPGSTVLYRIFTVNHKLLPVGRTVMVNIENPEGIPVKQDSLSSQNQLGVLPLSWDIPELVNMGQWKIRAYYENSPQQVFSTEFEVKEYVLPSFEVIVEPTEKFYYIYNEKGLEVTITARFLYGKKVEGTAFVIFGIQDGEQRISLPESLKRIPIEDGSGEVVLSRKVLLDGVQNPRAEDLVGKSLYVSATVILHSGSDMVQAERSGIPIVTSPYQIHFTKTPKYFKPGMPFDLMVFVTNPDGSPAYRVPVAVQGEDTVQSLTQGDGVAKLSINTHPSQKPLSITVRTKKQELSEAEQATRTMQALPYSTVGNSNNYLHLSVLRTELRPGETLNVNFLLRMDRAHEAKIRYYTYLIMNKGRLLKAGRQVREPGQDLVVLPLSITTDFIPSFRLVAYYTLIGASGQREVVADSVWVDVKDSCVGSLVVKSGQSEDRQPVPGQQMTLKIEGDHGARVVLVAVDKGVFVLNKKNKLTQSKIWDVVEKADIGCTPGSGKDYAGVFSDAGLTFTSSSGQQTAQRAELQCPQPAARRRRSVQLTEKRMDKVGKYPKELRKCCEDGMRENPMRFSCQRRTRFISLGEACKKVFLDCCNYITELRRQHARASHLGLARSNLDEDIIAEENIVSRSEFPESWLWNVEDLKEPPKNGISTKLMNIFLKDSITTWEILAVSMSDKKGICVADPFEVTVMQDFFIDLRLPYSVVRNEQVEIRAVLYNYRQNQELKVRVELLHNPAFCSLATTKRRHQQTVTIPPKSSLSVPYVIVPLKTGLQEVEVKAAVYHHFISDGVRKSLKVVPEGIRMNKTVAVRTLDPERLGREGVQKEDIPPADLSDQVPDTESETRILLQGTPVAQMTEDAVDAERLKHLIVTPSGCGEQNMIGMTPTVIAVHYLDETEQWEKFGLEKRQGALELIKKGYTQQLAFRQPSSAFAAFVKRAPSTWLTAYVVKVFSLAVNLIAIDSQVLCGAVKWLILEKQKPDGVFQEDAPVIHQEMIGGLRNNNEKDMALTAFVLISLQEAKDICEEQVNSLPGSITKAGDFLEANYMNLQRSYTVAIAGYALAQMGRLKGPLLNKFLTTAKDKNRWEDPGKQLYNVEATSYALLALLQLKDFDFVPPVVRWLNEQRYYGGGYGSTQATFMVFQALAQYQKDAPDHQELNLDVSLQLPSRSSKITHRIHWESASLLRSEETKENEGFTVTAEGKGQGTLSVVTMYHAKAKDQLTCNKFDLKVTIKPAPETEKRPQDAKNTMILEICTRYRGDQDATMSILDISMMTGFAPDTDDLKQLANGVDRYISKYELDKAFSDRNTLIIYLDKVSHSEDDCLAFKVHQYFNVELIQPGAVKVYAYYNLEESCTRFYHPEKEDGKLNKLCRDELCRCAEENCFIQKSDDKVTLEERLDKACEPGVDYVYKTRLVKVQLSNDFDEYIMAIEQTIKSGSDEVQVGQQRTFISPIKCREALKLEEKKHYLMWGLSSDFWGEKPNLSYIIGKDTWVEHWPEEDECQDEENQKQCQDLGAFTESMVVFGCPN
Description: as §1

cynomolgus C3 = target: T4, cynomolgus C3 (cynomolgus (Macaca fascicularis)); assay: as above
T4 construct: also called cyno C3
Description: as §1

human C3 P314L = target: T5, human C3 P314L (human, UniProt P01024 23-1663, limits assumed); assay: as above
T5 construct: Expressed in CHO cells with an N-terminal 6×His tag; also called C3 SNP1 P314L; C3 SNP P314L
T5 sequence (P01024 other isoform, or with tags, fused parts or gaps P314L P314L limits assumed): as the sequence (P01024 other isoform, or with tags, fused parts or gaps R102G R102G limits assumed) above, with G86R, P298L counted along it
Description: as §1

[11] = target: T6, recombinant wild-type human C3 (human, UniProt P01024 23-1663, limits assumed); assay: as above
T6 construct: Expressed in CHO cells with an N-terminal 6×His tag; also called recombinant C3; wildtype C3
T6 sequence (P01024 other isoform, or with tags, fused parts or gaps limits assumed): as the sequence (P01024 other isoform, or with tags, fused parts or gaps R102G R102G limits assumed) above, with G86R counted along it
Description: as §1

human C3b [12] = target: T2, human C3b; assay: as above
Description: as §1

human C3b [13] = target: T2, human C3b; assay: as above; remark: listed apart in the source
Description: as §1

human complement C3 [14] = target: T1, human complement C3; assay: method not given
human C3b [15] = target: T2, human C3b; assay: method not given

T1 sequence (P01024 23-1663 limits assumed): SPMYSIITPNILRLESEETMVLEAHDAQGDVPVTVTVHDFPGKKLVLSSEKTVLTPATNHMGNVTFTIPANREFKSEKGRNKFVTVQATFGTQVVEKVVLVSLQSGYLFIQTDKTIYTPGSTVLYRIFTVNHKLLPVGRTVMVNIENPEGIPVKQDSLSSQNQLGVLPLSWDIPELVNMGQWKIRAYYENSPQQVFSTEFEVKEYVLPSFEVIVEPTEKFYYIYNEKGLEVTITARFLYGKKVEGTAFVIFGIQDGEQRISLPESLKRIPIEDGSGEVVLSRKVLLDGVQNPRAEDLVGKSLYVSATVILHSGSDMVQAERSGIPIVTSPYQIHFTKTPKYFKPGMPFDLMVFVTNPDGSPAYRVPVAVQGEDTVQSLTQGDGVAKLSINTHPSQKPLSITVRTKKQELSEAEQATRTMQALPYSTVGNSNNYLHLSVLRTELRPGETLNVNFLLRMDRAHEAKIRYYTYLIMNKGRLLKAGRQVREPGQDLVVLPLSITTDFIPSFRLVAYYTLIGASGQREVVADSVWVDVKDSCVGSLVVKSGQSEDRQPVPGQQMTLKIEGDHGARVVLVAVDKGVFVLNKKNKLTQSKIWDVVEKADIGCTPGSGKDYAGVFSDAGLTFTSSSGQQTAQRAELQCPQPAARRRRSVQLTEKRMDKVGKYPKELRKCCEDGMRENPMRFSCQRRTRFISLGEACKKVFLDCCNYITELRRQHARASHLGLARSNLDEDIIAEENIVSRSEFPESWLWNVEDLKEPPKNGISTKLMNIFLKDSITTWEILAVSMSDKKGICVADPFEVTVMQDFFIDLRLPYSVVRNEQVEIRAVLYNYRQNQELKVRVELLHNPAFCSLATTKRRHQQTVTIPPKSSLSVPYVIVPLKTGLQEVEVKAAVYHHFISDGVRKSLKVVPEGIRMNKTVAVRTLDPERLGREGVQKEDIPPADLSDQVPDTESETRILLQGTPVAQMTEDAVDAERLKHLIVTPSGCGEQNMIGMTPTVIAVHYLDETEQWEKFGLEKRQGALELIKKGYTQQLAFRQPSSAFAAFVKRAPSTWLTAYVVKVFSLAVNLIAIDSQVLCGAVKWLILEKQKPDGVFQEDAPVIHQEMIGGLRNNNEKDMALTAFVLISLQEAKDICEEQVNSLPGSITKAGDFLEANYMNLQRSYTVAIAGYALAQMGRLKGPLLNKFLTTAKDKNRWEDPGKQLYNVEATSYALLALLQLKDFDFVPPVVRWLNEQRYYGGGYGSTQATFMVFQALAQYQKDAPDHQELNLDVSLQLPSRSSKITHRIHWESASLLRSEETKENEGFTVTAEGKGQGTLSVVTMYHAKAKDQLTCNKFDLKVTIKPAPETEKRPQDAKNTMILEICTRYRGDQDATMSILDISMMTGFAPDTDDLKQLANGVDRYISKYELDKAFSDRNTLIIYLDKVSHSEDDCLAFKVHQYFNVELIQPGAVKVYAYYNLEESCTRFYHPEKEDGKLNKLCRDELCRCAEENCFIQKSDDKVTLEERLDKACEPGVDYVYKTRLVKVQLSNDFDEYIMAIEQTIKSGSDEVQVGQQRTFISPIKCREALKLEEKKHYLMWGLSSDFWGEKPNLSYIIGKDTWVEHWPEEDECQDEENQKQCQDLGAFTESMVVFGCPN

- Kd (human complement C3 [7]): 1.1 nM
B4: Clone VII (scFv)
scFv: MQLVLTQSPSASASLGASVKLTCTLSSAHKTYTIDWYQQQPEKGPRYLMQLKSEGSYTKGTGVPDRFSGSSSGAERYLTISSLQSEDSAVYYCGTEGVGGYVFGCGTKLTVLGGGGGSGGGGSGGGGSGGGGSQVQVVESGGGSVQPGRSLRLSCAVSGFSLYNYAMNWVRQAPGKCLEWIGIINVGGGTNYASWAKGRFTISTDNSKNTVYLQMNSLRAEDTASYYCARAVGYHHHALDPWGQGTSVTVSS

- IC50, complement inhibition in the alternative pathway (human complement C3 [4]): 210 nM
- IC50, complement inhibition in the classical pathway (human complement C3 [4]): 98 nM
- Kd (human complement C3 [5]): 4.7 nM
- Kd (human C3b [6]): 4.8 nM
B5: Clone XII (scFv)
scFv: MQLVLTQSPSASASLGASVKLTCTLSSAHKTYTIDWYQQQPEKCPRYLMQLKSEGSYTKGTGVPDRFSGSSSGAERYLTISSLQSEDEADYYCGTDYGGGYVFGGGTKLTVLGGGGGSGGGGSGGGGSGGGGSQVQVVESGGGSVQPGRSLRLSCAVSGFSLYNYAMNWVRQAPGKGLEWIGIINVGGGTNYASWAKGRFTISTDNSKNTVYLQMNSLRAEDTASYYCARAVGYHHARLDPWGCGTSVTVSS

- Kd (human complement C3 [7]): 1.3 nM
B6: Clone IX (scFv)
scFv: B4 scFv with E96D

- fold increase in the binding affinity compared to Clone IV (human complement C3 [8]): ~10 fold
- fold increase in the binding affinity compared to Clone IV (human C3b [9]): ~10 fold
- Kd (human complement C3 [7]): 0.184 nM
B7: Clone VIII (scFv)
scFv: B4 scFv with H237S, A238R

- IC50, complement inhibition in the alternative pathway (human complement C3 [4]): 280 nM
- IC50, complement inhibition in the classical pathway (human complement C3 [4]): 80 nM
B9: Clone IV (scFv)
scFv: QSVKESGGRLVTPGTPLTLTCTVSGFSLYNYAMNWVRQAPGKGLEWIGIINTDGNTNYASWAKGRFTISTTSSTTVDLKITSPTTEDTATYFCPRAVGYHHHALDPWGPGTLVTVSSGGGGSGGGGSGGGGSGGGGASELVLTQSPSVSAALGASAKLTCTLSSAHKTYTIDWYQQQQGEAPRYLMQLKSDGSYTKGTGVPDRFSGSSSGADRYLIIPSVQADDEADYYCGTDYGGGYVFGGGTQLTVTG

- Kd (human complement C3 [10]): 0.151 nM
- koff (human complement C3 [10]): 3.6e-05 s⁻¹
- kon (human complement C3 [10]): 240000 M⁻¹ s⁻¹
- Kd (human C3 R102G): 0.115 nM
- koff (human C3 R102G): 3.2e-05 s⁻¹
- kon (human C3 R102G): 280000 M⁻¹ s⁻¹
- Kd (cynomolgus C3): 0.208 nM
- koff (cynomolgus C3): 4.3e-05 s⁻¹
- kon (cynomolgus C3): 200000 M⁻¹ s⁻¹
- Kd (human C3 P314L): 0.127 nM
- koff (human C3 P314L): 3.2e-05 s⁻¹
- kon (human C3 P314L): 250000 M⁻¹ s⁻¹
- Kd [11]: 0.128 nM
- koff [11]: 3.5e-05 s⁻¹
- kon [11]: 270000 M⁻¹ s⁻¹
- Kd (human C3b [12]): 0.127 nM
- koff (human C3b [12]): 3.1e-05 s⁻¹
- kon (human C3b [12]): 250000 M⁻¹ s⁻¹
- Kd (human complement C3 [2]): 0.151 nM
- Kd (human C3b [13]): 0.127 nM
- IC50 (nM), Alternative Pathway, MAC deposition (WEISLAB, human serum) (human complement C3 [1]): 349 nM
- IC50 (nM), Classical Pathway, MAC deposition (WEISLAB, human serum) (human complement C3 [1]): 73 nM
- IC50 (nM), Lectin Pathway, MAC deposition (WEISLAB, human serum) (human complement C3 [1]): 64 nM
B11: Clone III (scFv)
scFv: MQLVLTQSPSASASLGASVKLTCTLSSAHKTYTIDWYQQQPEKCPRYLMQLKSEGSYTKGSGIPDRFSGSSSGAERYLTISSLQSEDEADYYCGTEGVGGYVFGGGTKLTVLGGGGGSGGGGSGGGGSGGGGSQVQLVESGGGSVQPGRSLRLSCAASGFTFSNYAMNWVRQAPGKGLEWVAIINVGGGTNYADSVKGRFTISRDNSKNTLYLQMNSLRAEDTASYYCARAVGYHHARLDPWGCGTSVTVSS
notes: also called scFv of the invention
- IC50 (nM), Alternative Pathway, Hemolysis (rabbit erythrocytes, human serum) (human complement C3 [1]): 745 nM
- IC50 (nM), Classical Pathway, Hemolysis (antibody-sensitized sheep erythrocytes, human serum) (human complement C3 [1]): 72 nM

- Kd (human complement C3 [10]): 0.152 nM
- koff (human complement C3 [10]): 4.7e-05 s⁻¹
- kon (human complement C3 [10]): 310000 M⁻¹ s⁻¹
- Kd (human C3 R102G): 0.135 nM
- koff (human C3 R102G): 4.5e-05 s⁻¹
- kon (human C3 R102G): 330000 M⁻¹ s⁻¹
- Kd (cynomolgus C3): 0.267 nM
- koff (cynomolgus C3): 6.3e-05 s⁻¹
- kon (cynomolgus C3): 240000 M⁻¹ s⁻¹
- Kd (human C3 P314L): 0.14 nM
- koff (human C3 P314L): 4.2e-05 s⁻¹
- kon (human C3 P314L): 300000 M⁻¹ s⁻¹
- Kd [11]: 0.148 nM
- koff [11]: 4.9e-05 s⁻¹
- kon [11]: 330000 M⁻¹ s⁻¹
- Kd (human C3b [12]): 0.149 nM
- koff (human C3b [12]): 4.8e-05 s⁻¹
- kon (human C3b [12]): 320000 M⁻¹ s⁻¹
- Kd (human complement C3 [2]): 0.152 nM
- Kd (human C3b [13]): 0.149 nM
- Kd (human complement C3 [14]): 0.16 nM
- Kd (human C3b [15]): 0.14 nM
- IC50 (nM), Alternative Pathway, MAC deposition (WEISLAB, human serum) (human complement C3 [1]): 344 nM
- IC50 (nM), Classical Pathway, MAC deposition (WEISLAB, human serum) (human complement C3 [1]): 79 nM
- IC50 (nM), Lectin Pathway, MAC deposition (WEISLAB, human serum) (human complement C3 [1]): 67 nM
B12: Clone I (scFv)
scFv: MQLVLTQSPSASASLGASVKLTCTLSSAHKTYTIDWYQQQPEKCPRYLMQLKSDGSYTKGSGIPDRFSGSSSGAERYLTISSLQSEDEADYYCGTEGVGGYVFGGGTKLTVLGGGGGSGGGGSGGGGSGGGGSQVQLVESGGGSVQPGRSLRLSCAASGFTFSNYAMNWVRQAPGKGLEWVAVISYDGSNKYYADSVKGRFTISRDNSKNTLYLQMNSLRAEDTASYYCARAVGYHHARLDPWGCGTSVTVSS
notes: also called exemplary antibody of the invention (Clone I); scFv of the invention
- IC50 (nM), Alternative Pathway, Hemolysis (rabbit erythrocytes, human serum) (human complement C3 [1]): 705 nM
- IC50 (nM), Classical Pathway, Hemolysis (antibody-sensitized sheep erythrocytes, human serum) (human complement C3 [1]): 74 nM

More lines, now with the values behind:

B1: Comparative Compound A3 (antibody, human IgG1, kappa, V domains shown)
VH: QVQLVQSGAEVKKPGASVKVSCKASGYTFTDFYMDWVRQAPGQRLEWMGYIYPHNGGTTYNQQFTGRVTITVDKSASTAYMELSSLRSEDTAVYYCARRGGFDFDYWGQGTLVTVSS
VL: DIQMTQSPSSLSASVGDRVTITCKASENVDTYVSWYQQKPGKAPKLLIYGASNRYTGVPSRFSGSGSGTDFTFTISSLQPEDIATYHCGQSHSYPLTFGQGTKLEIKR
- IC50 (nM), Alternative Pathway, Hemolysis (rabbit erythrocytes, human serum) (human complement C3 [1]): 207 nM
- IC50 (nM), Alternative Pathway, MAC deposition (WEISLAB, human serum) (human complement C3 [1]): 548 nM
- IC50 (nM), Classical Pathway, Hemolysis (antibody-sensitized sheep erythrocytes, human serum) (human complement C3 [1]): 56 nM
- IC50 (nM), Classical Pathway, MAC deposition (WEISLAB, human serum) (human complement C3 [1]): 56 nM
- IC50 (nM), Lectin Pathway, MAC deposition (WEISLAB, human serum) (human complement C3 [1]): 58 nM

B2: Compound A3 Fab (Fab, V domains shown)
VH: B1 VH
VL: B1 VL
notes: also called NGM621 surrogate in a Fab format
- Kd (human complement C3 [2]): 0.34 nM
- fold lower affinity to C3b than to intact human C3 (human C3b [3]): > 100 fold

B3: Clone XIII (scFv)
scFv: B5 scFv with D96E, Y97G, G98V
- IC50, complement inhibition in the alternative pathway (human complement C3 [4]): 260 nM
- IC50, complement inhibition in the classical pathway (human complement C3 [4]): 60 nM
- Kd (human complement C3 [5]): 0.116 nM
- Kd (human C3b [6]): 0.11 nM

B8: Clone XIV (scFv)
scFv: B5 scFv with D96E, Y97G, G98V, A237S
notes: also called Cone XIV
- IC50, complement inhibition in the alternative pathway (human complement C3 [4]): 250 nM
- IC50, complement inhibition in the classical pathway (human complement C3 [4]): 50 nM
- Kd (human complement C3 [5]): 0.129 nM
- Kd (human C3b [6]): 0.116 nM

B10: Clone II (scFv)
scFv: B11 scFv with E54D
notes: as for B11
- Kd (human complement C3 [10]): 0.022 nM
- koff (human complement C3 [10]): 5.5e-06 s⁻¹
- kon (human complement C3 [10]): 250000 M⁻¹ s⁻¹
- Kd (human C3 R102G): 0.021 nM
- koff (human C3 R102G): 7e-06 s⁻¹
- kon (human C3 R102G): 330000 M⁻¹ s⁻¹
- Kd (cynomolgus C3): 0.07 nM
- koff (cynomolgus C3): 1.5e-05 s⁻¹
- kon (cynomolgus C3): 210000 M⁻¹ s⁻¹
- Kd (human C3 P314L): < 0.04 nM
- koff (human C3 P314L): < 1.1e-05 s⁻¹
- kon (human C3 P314L): 290000 M⁻¹ s⁻¹
- Kd [11]: 0.035 nM
- koff [11]: 1e-05 s⁻¹
- kon [11]: 300000 M⁻¹ s⁻¹
- Kd (human C3b [12]): 0.05 nM
- koff (human C3b [12]): 1.2e-05 s⁻¹
- kon (human C3b [12]): 250000 M⁻¹ s⁻¹
- Kd (human complement C3 [2]): 0.022 nM
- Kd (human C3b [13]): 0.05 nM
- IC50 (nM), Alternative Pathway, Hemolysis (rabbit erythrocytes, human serum) (human complement C3 [1]): 668 nM
- IC50 (nM), Alternative Pathway, MAC deposition (WEISLAB, human serum) (human complement C3 [1]): 360 nM
- IC50 (nM), Classical Pathway, Hemolysis (antibody-sensitized sheep erythrocytes, human serum) (human complement C3 [1]): 69 nM
- IC50 (nM), Classical Pathway, MAC deposition (WEISLAB, human serum) (human complement C3 [1]): 77 nM
- IC50 (nM), Lectin Pathway, MAC deposition (WEISLAB, human serum) (human complement C3 [1]): 71 nM
